According to the supplement of paper PMC10567573:
± gives the standard deviation.

Assay: protein stability index of a GFP-peptide fusion (GPS, HEK-293T) (PSI 1-6); higher = more stable
[1] = treatment: DMSO, c terminus: a fixed tail appended
[2] = treatment: MLN4924 1 uM, 8 h, c terminus: a fixed tail appended
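Further: 24-mer peptide tiles fused after GFP, lentivirally expressed, FACS-sorted into six equal bins by GFP/DsRed ratio, decoded by Illumina sequencing, PSI is the read-weighted mean bin number.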

| Sequence | protein stability index [1] | protein stability index [2] | protein stability index (treatment: DMSO, c terminus: native) | protein stability index (treatment: MLN4924 1 uM, 8 h, c terminus: native) |
| --- | --- | --- | --- | --- |
| PRKRHREDSDVEMVEDDSRKEMTA [MLH1] | 5.43 ± 0.25 | 5.49 ± 0.18 |  |  |
| HQEAEMAQNAVRLHYGLPVVVKLL [CTNNB1] | 2.58 ± 0.18 | 2.62 ± 0.21 |  |  |
| DVTCNEFFFDRNPGAFGTILTFLR [KCNG1] | 2.59 ± 0.33 | 2.65 ± 0.12 |  |  |
| GHIILNSMHKYQPRLHIVKADENN [TBX5] | 2.82 ± 0.48 | 2.95 ± 0.018 |  |  |
| GEKEEEDKDDEEKPKIEDVGSDEE [HSP90AB1] | 5.6 ± 0.24 | 5.77 ± 0.12 |  |  |
| KKREKQREQMEQMKQRIAEENIMK [FAM50A] | 4.8 ± 0.18 | 4.78 ± 0.41 |  |  |
| RDNAELEKLIQERSQQQEPLLCPS [KRT34] | 4.94 ± 0.13 | 4.87 ± 0.27 |  |  |
| PIETLIRDMLLSGSSFNWPYMAIQ [NR2F2] | 3.34 ± 0.18 | 2.95 ± 0.62 |  |  |
| PVCRKTSRYRSLRPNRQLGSMVEI [TRIM39] | 2.61 ± 0.15 | 2.83 ± 0.089 |  |  |
| RDFDNNTPLHIAAQNNCPAIMNAL [FEM1A] | 3.36 ± 0.3 | 3.46 ± 0.41 |  |  |
| GEPLEKVASVGNSRPTGQQLESLG [KISS1] | 5.04 ± 0.25 | 5.1 ± 0.13 |  |  |
| EPAGSLRELGVWRSLLRLRATRAG [C2CD2L] | 2.88 ± 0.29 | 3.06 ± 0.46 |  |  |
| RIGEATKPDGTVEQIGHILVSWLP [NET1] | 2.68 ± 0.29 | 2.56 ± 0.24 |  |  |
| NIPQMADTLFERATNSSWVVVFKA [SNAP91] | 2.27 ± 0.65 | 2.3 ± 0.82 |  |  |
| GARLGGFNFVSTPKCSCGQLAAVH [RNF180] | 2.36 ± 0.55 | 2.54 ± 0.21 |  |  |
| EEWGQLDPTQRILYRDVMLETFGH [ZNF8] | 2.91 ± 0.32 | 3.22 ± 0.38 |  |  |
| INHLLKSPFSVHPKTGRISVPIDL [PRIM1] | 2.06 ± 0.21 | 2.48 ± 0.17 |  |  |
| QFQDLTGIESMDQCRHTLEQHNWN [FAF2] | 3.1 ± 0.38 | 3.37 ± 0.13 |  |  |
| IVWSLAFGSSVPEKQSRCVNIEWH [WSB1] | 2.92 ± 0.36 | 2.93 ± 0.21 |  |  |

| Sequence | protein stability index [1] | protein stability index [2] | protein stability index (treatment: DMSO, c terminus: native) | protein stability index (treatment: MLN4924 1 uM, 8 h, c terminus: native) |
| --- | --- | --- | --- | --- |
| RGENVVLLGEIDLEKESDTPLQQV [LSM1] | 4.96 ± 0.27 | 4.79 ± 0.18 |  |  |
| IREEGRCSSSDDDTDVDMEGLRRR [PBXIP1] | 5.37 ± 0.25 | 5.42 ± 0.36 |  |  |
| QGEGPEAGDAEVCPTPARLATTEK [NOP53] | 5.46 ± 0.27 | 5.44 ± 0.19 |  |  |
| TKWVDYSNKYGFGYQLSDHTVGVL [PLK2] | 2.19 ± 0.33 | 2.08 ± 0.19 |  |  |
| DEVQIGPETVMTTLYTAKKYAVPA [BTBD1] | 3.67 ± 0.32 | 3.55 ± 0.41 |  |  |
| GFENMDFFTLDLEHIADALRAIDF [TRIM63] | 2.11 ± 0.17 | 2.25 ± 0.35 |  |  |
| LLFDMTTHPVTNTTEKQRLVKKLQ [GOLPH3L] | 2.61 ± 0.26 | 2.83 ± 0.41 |  |  |
| SYSRGYSYHDGYGEALGRDHSEHL [RBMY1A1] | 3.5 ± 0.28 | 3.38 ± 0.26 |  |  |
| KLRGPEPAATEAYGSGDTPGGPCD [TBX6] | 5.35 ± 0.21 | 5.28 ± 0.31 |  |  |
| ALVDGQIFCLHGGLSPSIDTLDHI [PPP2CA] | 1.9 ± 0.19 | 2.19 ± 0.38 |  |  |
| TVEQGCQILDSLSYMRNENVISEL [FBXO39] | 3.5 ± 0.43 | 3.41 ± 0.42 |  |  |
| VHVIGVEEPSVGASMLFDIREST [ZNF8] |  |  | 2.3 ± 0.27 | 2.38 ± 0.17 |
| VPWLNLKKQDENEGIKVEDLLFIV [CEP70] | 1.97 ± 0.42 | 2.26 ± 0.22 |  |  |
| LRGGGQVLLGWTLHYFPFFLMGRV [POMT2] | 3.01 ± 0.44 | 2.99 ± 0.37 |  |  |
| AAANKLFHYIPGTDILDLENQREN [PLEKHN1] | 4.13 ± 0.3 | 3.92 ± 0.43 |  |  |
| CLAHLGEKVSQELKEPLHKALQML [BCL2L13] | 2.26 ± 0.28 | 2.16 ± 0.26 |  |  |
| FVHGLEDEMYEVRIAAVEALCMLA [INTS4] | 2.34 ± 0.61 | 2.23 ± 0.46 |  |  |
| VFSTMAGLEEADAEVSVISEADPQ [FBF1] | 5.18 ± 0.36 | 5.26 ± 0.25 |  |  |
| NPLIASSFSLVKLVLRRQLKNKCC [C22orf31] | 2.25 ± 0.35 | 2.18 ± 0.32 |  |  |

| Sequence | protein stability index [1] | protein stability index [2] | protein stability index (treatment: DMSO, c terminus: native) | protein stability index (treatment: MLN4924 1 uM, 8 h, c terminus: native) |
| --- | --- | --- | --- | --- |
| LTFFAFLHCWLNAFAEMLRFGDRM [SOAT1] | 3.4 ± 0.23 | 2.9 ± 0.5 |  |  |
| PSFLSQTGHGVSRGPSPVVLGSQD [FCHO1] | 4.33 ± 0.3 | 4.3 ± 0.32 |  |  |
| KLSSFYSLKLIKRLYVDKSLNLST [SERPINB5] | 2.46 ± 0.42 | 2.18 ± 0.36 |  |  |
| SRLMVVVKMDSSIQPGPFRAVLKY [RHOBTB2] | 2.9 ± 0.56 | 2.79 ± 0.53 |  |  |
| YFRDLPEPLMTNKLSETFLQIYQY [DLC1] | 2.37 ± 0.32 | 2.26 ± 0.24 |  |  |
| LYPREGKYNHAACFGLQPGCLLPD [NLN] | 2.96 ± 0.33 | 3.1 ± 0.44 |  |  |
| RHLAHSMLQRAIAYQHSGHLESKD [C10orf62] | 3.91 ± 0.24 | 3.92 ± 0.21 |  |  |
| TNEAACLLDNPLCADVLFILQDQE [RHOBTB1] | 3.66 ± 0.24 | 3.82 ± 0.24 |  |  |
| FGNRIKVLRSRIRFIHLVTGCVLG [POMT2] | 2.57 ± 0.38 | 2.23 ± 0.45 |  |  |
| AEEPNAAVPDEIPPLEGDEDASRM [HSP90AB1] | 5.74 ± 0.15 | 5.65 ± 0.15 |  |  |
| LPLLSPKFLVGTVGSDPLIKSDEE [KLHL20] | 4.33 ± 0.051 | 4.43 ± 0.073 |  |  |
| SGRLMGSPPVPGPSAALTTMQLFS [FBXO28] | 2.71 ± 0.25 | 2.63 ± 0.21 |  |  |
| EYMKNLLKVGGILVMPLEEKLTKI [PCMTD2] | 2.73 ± 0.36 | 2.13 ± 0.33 |  |  |
| MWAHSMTVQDYQDLIDRGWRRSGK [ATE1] | 3.11 ± 0.14 | 3.27 ± 0.24 |  |  |
| WHPKPYCQALPYGPGYWMCCHRSQ [FBXO34] | 2.32 ± 0.37 | 2.08 ± 0.14 |  |  |
| GISVPSGLFVPSLLCGAAFGRLVA [CLCN6] | 2.62 ± 1.2 | 2.51 ± 0.97 |  |  |
| VCALCPVLGAHRGHPVGLALEAAV [TRIM14] | 2.57 ± 0.34 | 2.37 ± 0.6 |  |  |
| AELFSYVLQDRAAKGSLGTQIGFA [FEM1A] | 2.16 ± 0.21 | 2.11 ± 0.23 |  |  |
